According to paper PMC4634933, “Development of a Novel PET Tracer [^18F]AlF-NOTA-C6 Targeting MMP2 for Tumor Imaging” (PLoS ONE, 2015):
Bridge positions count the residues as written; N and C are the ends. Peptide text beside a SMILES is read from it. * marks the point of attachment. NOTA = O=C(O)CN1CCN(CC(=O)O)CCN(CC(=O)*)CC1

How the values were obtained:
[1] = system: SKOV3 tumors; assay: MicroPET imaging of SKOV3 tumor-bearing mice; type: in vivo; details: 3.7 MBq via tail vein, non-blocked
Procedure: Tumor-bearing mice were prepared via a subcutaneous injection of cancer cells into the forelegs of female (SKOV3) or male (PC3) BALB/c nude mice (B&K Universal, Shanghai, China) at 6 weeks of age (body weight 18–20 g). When tumors were palpable, i.e., approximately 5 mm in diameter, the mice were used for biodistribution and PET imaging experiments. PET imaging was performed on 4 mice bearing SKOV3 tumors using a microPET scanner; prior to the tracer injection, 2 mice were pre-blocked with unlabeled C6 at 10 mg/kg body weight, and 2 mice were not pre-blocked. Pre-blocked and non-blocked mice were then administered 3.7 MBq of [^18F]AlF-NOTA-C6, via tail vein injection. At 30, 60, and 120 min post-injection (PI), the mice were anesthetized with 1–2% isoflurane, positioned supine, immobilized, and imaged. The scan time was 10 min. The images were reconstructed using the ordered subset expectation maximization method; no attenuation correction was used.

[2] = system: SKOV3 tumor-bearing mice; assay: in vivo
Procedure: (§1) Tumor-bearing mice were prepared via a subcutaneous injection of cancer cells into the forelegs of female (SKOV3) or male (PC3) BALB/c nude mice (B&K Universal, Shanghai, China) at 6 weeks of age (body weight 18–20 g). When tumors were palpable, i.e., approximately 5 mm in diameter, the mice were used for biodistribution and PET imaging experiments. Biodistribution experiments were performed via intravenous administration of [^18F]AlF-NOTA-C6 (0.74 MBq) to mice bearing SKOV3 tumors. At 30, 60, and 120 min PI (n = 4 mice/timepoint), the mice were euthanized and the biological samples of interest (e.g., blood, tumor, muscle, lung, spleen, kidney, liver, and small intestine) were harvested and weighed. In the blocking experiments, the mice (n = 4) were pre-blocked with unlabeled C6 at 10 mg/kg body weight prior to the tracer injection; at 60 min PI of [^18F]AlF-NOTA-C6, the mice were euthanized as previously described. The radioactivity values of the tissues and injection standards were subsequently measured in a γ-counter. The samples were corrected for radioactive decay to calculate the percent of injected dose (ID) to grams of tissue (%ID/g) relative to a standard that represented the injected dose.

[3] = in vivo; parameters: species or system mice; details: female, BALB/c nude, mouse, in vivo, iv, 0.74 MBq, total radioactivity
Procedure: as §1

[4] = type: physicochemical
Procedure: To examine in vitro stability, approximately 400 μL of [^18F]AlF-NOTA-C6 and 2 mL of physiological saline at room temperature, or 2 mL of human serum at 37°C, were mixed and incubated for 4 h. During the incubation, 200-μL samples were collected at 2 and 4 h. The samples were subsequently analyzed by radio-HPLC.

[5] = system: PC3 tumors; assay: MicroPET imaging of PC3 tumor-bearing mice; type: in vivo; details: 3.7 MBq via tail vein, greatest radioactivity concentration at 30 min PI
[6] = system: gelatinase; parameters: method as in PMID 19424760; details: cited from earlier work

Question: For `CC(C)C[C@@H]1NC(=O)[C@H]([C@@H](C)O)NC(=O)[C@H](Cc2ccccc2)NC(=O)CNC(=O)[C@H](Cc2c[nH]c3ccccc23)NC(=O)[C@H](Cc2c[nH]cn2)NC(=O)[C@H](C)NC(=O)[C@@H](NC(=O)CN2CCN(CC(=O)O)CCN(CC(=O)O)CC2)CCCCNC(=O)C[C@@H](C(N)=O)NC1=O` [[^18F]AlF-NOTA-C6] ({NOTA}-KAHWGFTLD-NH2; lactam 1-9), which “tumor radioactivity concentration in PET” value ([1]; 30 and 60 min PI) is on record?
Answer: visualized

Question: And the “uptake of the tumors in PET” value ([1]; 120 min PI)?
Answer: negligible

Question: And the “change of tumor tissue uptake after pre-injection of excess C6” value ([2]; SKOV3 tumor-bearing mice, C6 10 mg/kg pre-block versus non-blocked, 60 min PI, P < 0.05)?
Answer: marked reduction

Question: What about the “uptake ratio of tumor-to-blood” value ([2]; mouse, in vivo) of the same molecule?
Answer: > 2 fold

Question: And the tissue uptake at 0.5 h ([3]; Fat uptake)?
Answer: 0.44 ± 0.08 %ID/g

Question: And the tissue uptake at 1 h ([3]; Fat uptake)?
Answer: 0.18 ± 0.1 %ID/g

Question: What about the tissue uptake at 2 h ([3]; Fat uptake) of the same molecule?
Answer: 0.12 ± 0.07 %ID/g

Question: What about the tissue uptake at 0.5 h ([3]; Gut uptake) of the same molecule?
Answer: 0.47 ± 0.09 %ID/g

Question: And the tissue uptake at 1 h ([3]; Gut uptake)?
Answer: 0.13 ± 0.07 %ID/g

Question: What about the tissue uptake at 2 h ([3]; Gut uptake) of the same molecule?
Answer: 0.12 ± 0.07 %ID/g

Question: And the tissue uptake at 0.5 h ([3]; Kidney uptake)?
Answer: 7.14 ± 0.05 %ID/g

Question: What about the tissue uptake at 1 h ([3]; Kidney uptake) of the same molecule?
Answer: 4.55 ± 1.38 %ID/g

Question: And the tissue uptake at 2 h ([3]; Kidney uptake)?
Answer: 4.72 ± 0.31 %ID/g

Question: And the tissue uptake at 0.5 h ([3]; Muscle uptake)?
Answer: 0.57 ± 0.15 %ID/g

Question: And the tissue uptake at 1 h ([3]; Muscle uptake)?
Answer: 0.08 ± 0.04 %ID/g

Question: What about the tissue uptake at 2 h ([3]; Muscle uptake) of the same molecule?
Answer: 0.21 ± 0.08 %ID/g

Question: And the tissue uptake at 0.5 h ([3]; Pancreas uptake)?
Answer: 0.35 ± 0.01 %ID/g

Question: What about the tissue uptake at 1 h ([3]; Pancreas uptake) of the same molecule?
Answer: 0.16 ± 0.14 %ID/g

Question: What about the tissue uptake at 2 h ([3]; Pancreas uptake) of the same molecule?
Answer: 0.09 ± 0.06 %ID/g

Question: And the tissue uptake at 0.5 h ([3]; Sexual gland uptake)?
Answer: 0.5 ± 0.12 %ID/g

Question: What about the tissue uptake at 1 h ([3]; Sexual gland uptake) of the same molecule?
Answer: 0.05 ± 0.03 %ID/g

Question: What about the tissue uptake at 2 h ([3]; Sexual gland uptake) of the same molecule?
Answer: 0.09 ± 0.02 %ID/g

Question: What about the tissue uptake at 0.5 h ([3]; Stomach uptake) of the same molecule?
Answer: 0.49 ± 0.31 %ID/g

Question: What about the tissue uptake at 1 h ([3]; Stomach uptake) of the same molecule?
Answer: 0.21 ± 0.19 %ID/g

Question: And the tissue uptake at 2 h ([3]; Stomach uptake)?
Answer: 0.07 ± 0.02 %ID/g

Question: What about the tissue uptake at 0.5 h ([3]; Thyroid uptake) of the same molecule?
Answer: 0.88 ± 0.13 %ID/g

Question: What about the tissue uptake at 1 h ([3]; Thyroid uptake) of the same molecule?
Answer: 0.16 ± 0.07 %ID/g

Question: And the tissue uptake at 2 h ([3]; Thyroid uptake)?
Answer: 0.3 ± 0.16 %ID/g

Question: What about the tissue uptake at 0.5 h ([3]; Tumor uptake) of the same molecule?
Answer: 1.2 ± 0.24 %ID/g

Question: What about the tissue uptake at 1 h ([3]; Tumor uptake) of the same molecule?
Answer: 0.75 ± 0.25 %ID/g

Question: And the tissue uptake at 2 h ([3]; Tumor uptake)?
Answer: 0.27 ± 0.14 %ID/g

Question: And the radioactive degradation products [4]?
Answer: absence

Question: And the “radioactivity in the form of [18F]AlF-NOTA-C6” value ([4]; physiological saline, room temperature, 4 h incubation, radio-HPLC)?
Answer: > 95%

Question: What about the “tumor detection via PET” value [5] of the same molecule?
Answer: detected

Question: With “c(Lys-Ala-His-Trp-Gly-Phe-Thr-Leu-Asp)NH2 (sidechain bridge or staple) [C6]” as the molecule, how does the “increase in gelatinase inhibition relative to CTT” value [6] read?
Answer: 4 fold
